Results taken from ChEMBL document CHEMBL1629679, “Extended-spectrum cephalosporinases in Pseudomonas aeruginosa” (2009).
Changes are numbered by the printed parent chain.

How the values were obtained:
[1] = substrate: CC(C)(O/N=C(\C(=O)N[C@@H]1C(=O)N2C(C(=O)[O-])=C(C[n+]3ccccc3)CS[C@H]12)c1csc(N)n1)C(=O)O; assay: (§1) Ratio of Kcat to Km for Pseudomonas aeruginosa PDC-5 by spectrophotometer
[2] = substrate: CCN1CCN(C(=O)N[C@@H](C(=O)N[C@@H]2C(=O)N3[C@@H]2SC(C)(C)[C@@H]3C(=O)O)c2ccccc2)C(=O)C1=O; assay: as §1
[3] = substrate: C[C@@H](O)[C@H]1C(=O)N2C(C(=O)O)=C(SCCNC=N)C[C@H]12; assay: as §1
[4] = substrate: CC1(C)S[C@@H]2[C@H](NC(=O)Cc3ccccc3)C(=O)N2[C@H]1C(=O)O; assay: as §1
[5] = substrate: CO/N=C(\C(=O)N[C@@H]1C(=O)N2C(C(=O)O)=C(COC(C)=O)CS[C@H]12)c1csc(N)n1; assay: as §1
[6] = substrate: CC(C)(O/N=C(\C(=O)N[C@@H]1C(=O)N2C(C(=O)[O-])=C(C[n+]3ccccc3)CS[C@H]12)c1csc(N)n1)C(=O)O; assay: (§2) Activity at Pseudomonas aeruginosa PDC-5 by spectrophotometer
[7] = substrate: CCN1CCN(C(=O)N[C@@H](C(=O)N[C@@H]2C(=O)N3[C@@H]2SC(C)(C)[C@@H]3C(=O)O)c2ccccc2)C(=O)C1=O; assay: as §2
[8] = substrate: C[C@@H](O)[C@H]1C(=O)N2C(C(=O)O)=C(SCCNC=N)C[C@H]12; assay: as §2
[9] = substrate: CC1(C)S[C@@H]2[C@H](NC(=O)Cc3ccccc3)C(=O)N2[C@H]1C(=O)O; assay: as §2
[10] = substrate: CO/N=C(\C(=O)N[C@@H]1C(=O)N2C(C(=O)O)=C(COC(C)=O)CS[C@H]12)c1csc(N)n1; assay: as §2
[11] = substrate: CO/N=C(\C(=O)N[C@@H]1C(=O)N2C(C(=O)[O-])=C(C[N+]3(C)CCCC3)CS[C@H]12)c1csc(N)n1; assay: as §2
[12] = substrate: CC(C)(O/N=C(\C(=O)N[C@@H]1C(=O)N2C(C(=O)[O-])=C(C[n+]3ccccc3)CS[C@H]12)c1csc(N)n1)C(=O)O; assay: (§3) Activity at Pseudomonas aeruginosa PDC-1 by spectrophotometer
[13] = substrate: CCN1CCN(C(=O)N[C@@H](C(=O)N[C@@H]2C(=O)N3[C@@H]2SC(C)(C)[C@@H]3C(=O)O)c2ccccc2)C(=O)C1=O; assay: as §3
[14] = substrate: C[C@@H](O)[C@H]1C(=O)N2C(C(=O)O)=C(SCCNC=N)C[C@H]12; assay: as §3
[15] = substrate: CC1(C)S[C@@H]2[C@H](NC(=O)Cc3ccccc3)C(=O)N2[C@H]1C(=O)O; assay: as §3
[16] = substrate: CO/N=C(\C(=O)N[C@@H]1C(=O)N2C(C(=O)O)=C(COC(C)=O)CS[C@H]12)c1csc(N)n1; assay: as §3
[17] = substrate: CO/N=C(\C(=O)N[C@@H]1C(=O)N2C(C(=O)[O-])=C(C[N+]3(C)CCCC3)CS[C@H]12)c1csc(N)n1; assay: as §3
[18] = substrate: CC(C)(O/N=C(\C(=O)N[C@@H]1C(=O)N2C(C(=O)[O-])=C(C[n+]3ccccc3)CS[C@H]12)c1csc(N)n1)C(=O)O; assay: (§4) Ratio of Kcat to Km for Pseudomonas aeruginosa PDC-1 by spectrophotometer
[19] = substrate: CCN1CCN(C(=O)N[C@@H](C(=O)N[C@@H]2C(=O)N3[C@@H]2SC(C)(C)[C@@H]3C(=O)O)c2ccccc2)C(=O)C1=O; assay: as §4
[20] = substrate: C[C@@H](O)[C@H]1C(=O)N2C(C(=O)O)=C(SCCNC=N)C[C@H]12; assay: as §4
[21] = substrate: CC1(C)S[C@@H]2[C@H](NC(=O)Cc3ccccc3)C(=O)N2[C@H]1C(=O)O; assay: as §4
[22] = substrate: CO/N=C(\C(=O)N[C@@H]1C(=O)N2C(C(=O)O)=C(COC(C)=O)CS[C@H]12)c1csc(N)n1; assay: as §4
[23] = substrate: CO/N=C(\C(=O)N[C@@H]1C(=O)N2C(C(=O)[O-])=C(C[N+]3(C)CCCC3)CS[C@H]12)c1csc(N)n1; assay: as §4

B1: Beta-lactamase (Pseudomonas aeruginosa), Q8RL90 (protein)
chain: MRDTRFPCLCGIAASTLLFATTPAIAGEAPADRLKALVDAAVQPVMKANDIPGLAVAISLKGEPHYFSYGLASKEDGRQVTPETLFEIGSVSKTFTATLAGYALAQDKMRLDDRASQHWPALQGSRFDGISLLDLATYTAGGLPLQFPDSVQKDQAQIRDYYRQWQPTYAPGSQRLYSNPSIGLFGYLAARSLGQPFERLMEQQVFPALGLEQTHLDVPEAALAQYAQGYGKDDRPLRVGPGPLDAEGYGVKTSAADLLRFVDANLHPERLDRPWAQALDATHRGYYKVGDMTQGLGWEAYDWPISLKRLQAGNSTPMALQPHRIARLPAPQALEGQRLLNKTGSTNGFGAYVAFVPGRDLGLVILANRNYPNAERVKIAYAILSGLEQQGKVPLKR
kcat/Km [1]: 500000 M⁻¹ s⁻¹ | kcat/Km [2]: 125000 M⁻¹ s⁻¹ | kcat/Km [3]: 6e+06 M⁻¹ s⁻¹ | kcat/Km [4]: 860000 M⁻¹ s⁻¹ | kcat/Km [5]: 20000 M⁻¹ s⁻¹ | Km [6]: 30 µM | kcat [6]: 0.015 s⁻¹ | Km [7]: 40 µM | kcat [7]: 5 s⁻¹ | Km [8]: 15 µM | kcat [8]: 0.1 s⁻¹ | Km [9]: 35 µM | kcat [9]: 30 s⁻¹ | Km [10]: 5 µM | kcat [10]: 0.1 s⁻¹ | Km [11]: 1700 µM

B2: Beta-lactamase (Pseudomonas aeruginosa (strain ATCC 15692 / PAO1 / 1C / PRS 101 / LMG12228)), P24735 (protein)
chain: B1 chain with Q79R, A105T
kcat [12]: 0.004 s⁻¹ | Km [13]: 100 µM | kcat [13]: 2 s⁻¹ | Km [14]: 20 µM | kcat [14]: 0.01 s⁻¹ | Km [15]: 35 µM | Km [16]: 6 µM | kcat [16]: 0.02 s⁻¹ | Km [17]: 800 µM | kcat [17]: 0.08 s⁻¹ | kcat/Km [18]: 200000 M⁻¹ s⁻¹ | kcat/Km [19]: 50000 M⁻¹ s⁻¹ | kcat/Km [20]: 500000 M⁻¹ s⁻¹ | kcat/Km [21]: 430000 M⁻¹ s⁻¹ | kcat/Km [22]: 3000 M⁻¹ s⁻¹ | kcat/Km [23]: 100000 M⁻¹ s⁻¹
